Assay results as given in the NTF2 design screens of Basanta et al. (2020).

Experiment: protease stability score; higher = more stable; yeast display proteolysis, trypsin and chymotrypsin;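 also: relative to predicted unfolded state with 0 unfolded-like and 1 meaning tenfold more protease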

| Sequence | protease stability score |
| --- | --- |
| DEDHRLAVHISKMFEHAESTGDFEISERMADPHTKIDIGDKHYHGMEEWVRFLRELRLSTDHIEIKDSKRYNGRLIIHSRTRITLNVNGKTIDFEIDVTFIFEKVNGRWKLHMYRFD | 0.944 |
| DEDHRLWEEMIRILHDALRTGDEDMLEHLMDPDTRLHVGDKNVHGRRDMKYFWEILGVDRVELVIRSFRLIDGKAEIDGESRFNGVTRRVRLIHNKINGRWLTESIHIH | 0.745 |
| DEDHRWLKELMELFSRALSTGNEKELTELMDPNTRIEVDGVDLIGREDWRHFLERVDHLEAKRVEIKRVKVYDGKIEMDTTEDGVIEINGQNVRTIVHSQVFVLKVDGRWIFRKMSRR | 1.42 |
| DEDKDKVRRWAEDFIRDLTTGDFDSLRREADPNYRIEVNGQDHHGMEFHLWVLDHLGLDNIHTELRDSEVQGDKAHNDIRITYNGKEMTVILIVDKVNGKWFVRKIRIE | 1.72 |
| DEDKDLIDLHFEIYQQVVLTGDFRKFRRLFDPNTRWEIGDKEFHGREHLSKLHKDLLEHLGVRVREVELHNFHIQGDKIHLDTRIHVHAENHHMIHITEIISTKIDGRWIITELRLR | 0.826 |
| DEDKDLMHEVTRLLHRNLNTGDEHSLERLFDPHYRYHQGEFHSVGREEWYEWLRRYGVDHVHVNLTESISVGDKMKLEGKLELRYDGRRFEHDLHLIALKIDGRWIFTSSHVR | 0.221 |
| DEDKDMKDTMLKDLLHTLETGDEDIWAKLIDPNTQVDIGDKRIHGREKIVEHFRRADVLTIHHVRLRQFHHFDGRAHMNVQFDGTVQINGVEVRFDVTVKLVFLKVNGRWFLHSEERE | 1.15 |
| DEDKDVTKRLFELLRQADETGDEHTMTRLLDPHAQLVVNGRRVHGMEFVWELLLRLRHRYDHSHWRLHDARTQGEYMHLDVRLHLNIDGKRVNIEMHLIILKIDGVWFVHSVEIH | 0.45 |
| DEDKEAARHFSKILIHLMLTGDEEMIERLLDPDVKVHLVINGVHIERHGREEMIKMHRELLEQIRWKDFILRDIKVVNGVAHVDGELRREQGDKHETVRVRIDIVVINGRIRQVHIEFR | 0.404 |
| DEDKEAKEESWRIYLHSLLTGDEKEIERLVDPNARLDINGQEHHGRHMVLTHVLRLMVRADHLDDIEIHHMEVIDGQLHSDVILKITINGRDVHIREHYLLRKVNGRWYFKSIEVR | 1.7 |
| DEDKEALHEILRLIAEAWNTGDEHTLRRLFDPDVRVEVGDKEFHGREEVDRWFRHLRIEHVETRLHDTRSQGDKLLSDTRLHFVGEVNGVHFNRSTETDLFVHKVDGRWRIESIRVR | 1.03 |
| DEDKEDLDDWFKRWEEALRTGDEKTLLRLMDPDTRLIFENHERHGMEEIFDMLHKHLNRVDHIHDFILRRDDSQGDKVRYDGQEDGIVDGVRDILKVIIYMIKIDGRWLMEELEFH | 1.26 |
| DEDKEDTDKMIEILIRVARTGDEDSLLHMLDPNVRIVVNGREEHGRDVAHRFLKEIRIHDMEVKRVEIIGNKVKIDGRVDGDFNGVRHKTETEIITEKINGKWVIRSIIFR | 2.1 |
| DEDKEEAMKFLRLWFHSVLTGDEDELTRLLDPNTRIVIDGRTFVGREEMVFVMREMRVHHFHIKDVHLVNGVAHIDTHSDIEFNGRRYRTDTEISVLKVDGKWILKSVKIR | 2.42 |
| DEDKEEAVRIIHEWSHAVFTGDFERELRLADPNVRLIINGRDFHGWHSLRELLNHMRLKTHHTDVKRSRSQGDFVEIDGLFNFTIHFNGRDLNVITDVKVVINKIDGRWKIESVHYE | 1.18 |
| DEDKEEIMEAIKEFLTNLQTGDEERLFELFDPHVRLKVNGQLYHGREDLVRHLSELGVKHWRLRSVEIQGEKAIMHGLVNVDGRSVRMIIEAEKVNGRWRMRHFESH | 1.84 |
| DEDKEESEKFFRDMHRAAETGDWREHLRLMDPHVRLVVGEYQHHGRETFEEILTEWFERVDHQELVIRHVRVYDGVADLDGEIIYHYGDKIIFVRYTIHVRKVDGRWRIKHIRIE | 0.476 |
| DEDKEFMERLARMFWHSILTGDEHRISNLADPNMKLEVDGQRFHGREEMERASKERWERLGVDHIHIEDLRVVGDKVTIHTHVDINGKEWRVDIEVKIINGKIKEIRIERHEL | 1.09 |
| DEDKEHIDRSLEELRRSWKTGNEEDVLRLADPHVKMIYNGRHHIGRENFEEALKILLERVDHWEDFRITDRHRQGDKVELDVESEGLVNGVTKRTEMIFIILKIDGRWLLHSLEIR | 0.724 |
| DEDKEIADNFLKQLLRDIQTGDEDSFIERLDPNARLQVGDKHVHGMDEVLRTRREWVKLMGADHIHHVEVNHVHIQGDKVHMDVEVDVEFNGKRRRLKSHLILTKVDGQWIITMEIIK | 1.08 |
| DEDKEIAEHNLRLLSHSRLTGDEESMHKLMDPNAKIDFNGREIHGMEWIEWLKNQLRLKHVHTEFKDSRIINGRMEVDVNLRLHLSINGKEVDFIIDVELISQKVDGRWIVRSEIYR | 0.375 |
| DEDKEIAEKVAREVFHNFMTGDEDRHLELADPHTRLRVGEWENHGRDQVKRMFERQRRRFDHLERIEIKDVRIYDGVVHLHVEVHGVINGVSTTLEMRVYFVVVNGQLKRSSIHIH | 0.373 |
| DEDKEIAKKAIEDLLRAWYTGDEEFLKNLVDPNVRSNFDGVDYHGRDEVEKFWHDHLRDLGADHVEFSLHELRIYGDKIILHTKIKFNVNGREIRRETEVISRKIDGRWLIKEIHFR | 1.42 |
| DEDKEILHKMVEILRHALQTGDEDRLSEMFDPNVRLEINGREEWGREIFRDKHRQLGVDHLHIIIRRVHIQGEYAHIDTEYRIHVNGKTLETRVEVIALKIDGKWLIRQVIFT | 1.14 |
| DEDKEILKRAFEIYIQTVLTGDEDLFHEMADPHTRLETENETFIGREEVRRWMSEWRVDHIILKDFTAVNGRLVLRGEMDGTINGKRTHVTVTIIIHKVDGRWLLKSMSVE | 1.36 |

| Sequence | protease stability score |
| --- | --- |
| DEDKELAIRMIRLLMHALHTGDEDLLDELLDPNTKVDVDGQDLVGREQFLRDLRHIRIEIKDSHIHDVRVQGDKVRSHSYINGRREYDGVRLETEFRVLFIIRKVNGKWIFKSIHSL | 1.3 |
| DEDKEMIRHAVEILLKTLYTGDWETLERLLDPNARINVDGVDIHGRDVVKHWLDRADHVSIHDSHVERFRFVNGRLTIHIKEHSRFEIGDKTMRVELKRNLFILKIDGRWILESERIV | 1.01 |
| DEDKENAEEAIRRLMEMILTGDEDQIRHMIDPHVRVIINGRDHHGWEELLRFWKEMRIHDVKVHDIKIINGRVNSDTKIVTEIGDFRIELEAHFIFHKFDGRWRVDSVDLR | 1.18 |
| DEDKERADEMLEYILHYILTGDEDSLRELFDPHARLHVDGRDIIGWDKFNRKLIEIRQRTRIQSEHIHIQGDKLHVDGTLRINIHYNGQHLHIDLRSIHITVKINGRWVFKFMEIR | 0.829 |
| DEDKESAEEAFKVWVRDLMTGDEDSLRRLVDPRTLVEVGDKHFHGRDMFVHLEKLQRERADHIRIELHDFDIQGEKIHLDVRVILEQGEKRVFLRTHYLILKVNGRWIVKSLWIQ | 0.921 |
| DEDKESAERAFRILVHLWETGDEHKLERMHDPNTRYHQGDKDIHGMEKILERLSHIRIKDVKLRDIKYQGEKLEVDGEIEIEVDGRNLLLRTILFFDKVDGRWVIRSIEVR | 1.52 |
| DEDKESAKTLVELLVEVLSTGDWKELLHLMDPNTRININGREVHGWHSMHELLRRMIEELRIKRLHLTEVRAQGDKVHVSSKMRVNIDGQDRLTQTHIDVHVFDGVIKTWTMHIE | 1.01 |
| DEDKESLTRFWRMWVELNQTGDEDSLLKMFDPHVKIDINGRDLHGRELFAEEHKKFREEMGIDHFEFEIHRFEVQGDKANLDAKVTIRIGDKFHQLDLHIILHKVNGRWVLHSVKIR | 1.22 |
| DEDKESTDKMLELMLHLIKTGDFEIFEHLFDPNVRVNVGDKERVGWKEALKFRRQWRLHHMEVRDVHKVGDKMHVDSRIDGSVNGVREEDRTEIILVKYDGRWFITSIEFH | 0.99 |
| DEDKEWAHRILEHFLDNLRTGNEERLEELADPNTRVVIDGQEEHGMHVFNTLHKELRIDRIHLTSWDIQGDKLHLDVRVDGTFNGQREVTRVHIYFRVVNGRVKDIQIHVI | 1.8 |
| DEDKEYLREVLEVLKHMWDTGDERELSKLADPHTRVEINGVKFIGMEEFVRIMQELTKRADHMENRVERNIYQGDYVLVRTRLILKIGEKDFEREVDIFVRKFNGRWLIEELKFH | 1.37 |
| DEDKHLARHLVDLIWESLKTGNEKLSKSLADPNVRIIVGDKEVVGRERVEKWLEKVMHEIRVKDLDERHVDVQGDKVNVYVDIHGNFDGKDDTTHFYFDIKKVNGVWLIERYEVH | 0.958 |
| DEDKHLIETFLERLERILKTGDEEDERRLADPHAKLVQGDKILHGREELIRWLRELGAKHVRLHISHLDVQGDKVETDLRLIIIQGDKEYEKDMKVHVLKVDGRWLLKSIIVE | 2.08 |
| DEDKHLSDYAMELELHAIKTGDEDLWRELIDPNARLIVGDKTFHGWEHLVTFMVSLGVKHVKLKDLKIQGDKMHSKLEIEFDGRTRTYHVVSLKVDGRWVIESVEVR | 1.06 |
| DEDKHLSQLAIELLHRFLWTGDEHDLEHLMDPNAKLEQGDKTLHGRELVLEFFDHLVEEAGITKVDHKLRRIETYGNKVNIHGDLHVNGRTIRIEIIAVKINGKWVVRSVRIK | 1.21 |
| DEDKHQLDEATKVWLELFLTGNEEELLKLADPDVRIEVDGKHFHGREVMLKLMQEWKHRLGINVDELKRTEIEVIDGKAHVHLDGELYIDGKTFRLDIEVVYEKIDGRWRLKKVRFDIR | 2.15 |
| DEDKHVVEEFEKLMSHSMATGDEESLLRLADPNTRIVIGDKELHGMDLYLRWHVQHWRELGVDRVKVEVRVRDVRVVDGKVHVIGELIFRFDGRTQSHDVELEIVKINGKWVLKQINLK | 2.25 |
| DEDKKELEEMFRILKEMWETGDWREESRMVDPHARVDINGVELHGREFIMEHIHRVKNMRFEIKRFDVVNGVLEIVGELHQGDKKHRVTIHALKFDGKWLQETVIIG | 1.6 |
| DEDKKFIDEYLKLLEDSIETGDWRNHNELLDPNALVLVNGVELHGRELAVTHTEKFLKHMGVKHYRLHEVDIQGEKVHIHSKAHVDGRTFDLEFISHKIDGRWLMSEVRIREN | 1.24 |
| DEDKKHALEMAEMLFELIWTGDEHMLKELMDPNTRLFFNGRETHGWEFLSRELIHLRHRSDFRIRDVRIIGDYLHVDGEFHTILNINGVDIELHLHMEIVLFKIDGRWVVHEIRFL | 1.72 |
| DEDKKITDRAFEIFIHNLYTGNEEDLHELADPNVRHIYGDWNVHGMELMTHVLWEIRMKRLNEHDLEIHIINGRAIIDLDGELDGEVNGRRHHRRIIIHVFALKIDGRWHLESMEVKTK | 1.35 |
| DEDKKIWKHWLEIFVRWFLTGDFDKLRENADPNARSDINGKELHGMETFVEAMRELGFKHVEIHDVHIQGNKVHLDTRVLFDGQHHTTHLHVHIVNGRLKEISIEIR | 1.26 |
| DEDKKLAHESFRIWLHWMRTGDEKMMEELMDPNTRTYFEGHSDHGRSAARQYANRIDHIHHIHVHHIEIQGDKVEVDGRLDGVVNGKRIDVRIVIESVKVNGKWIVRSIEEH | 1.41 |
| DEDKKLHHEALEVWERVLKTGNFRIESEYLDPHARNEFEGRHFHGRELFHELNEELGVENVRFHHFHVHDLETFNGRILMRFHMEGEINGQQFNVEVKVDTEKYDGVWFTRSFVER | 0.38 |
| DEDKKLVEWVLRMLFEALRTGDEHALNNLFDPNVRIEQGDKRFHGREELIRLFHILGIDHIIIEDKDIKVFDGQLEIDGREVLIFDGRRFEIDMKIYIHKINGRWHVKSVHKD | 1.78 |
